The results in this text go back to US20160326264A1 (SORRENTO THERAPEUTICS, published 2016).

For experiment [1], the target named is T1, endogenous human PSMA (prostate-specific membrane antigen) expressed on LNCaP human prostate cancer cells (human, UniProt Q04609 1-750).
T1 construct: whole, on cells; also called PSMA-expressing LNCaP cells
Nature of the experiment: flow cytometry on LNCaP cells. The method, then: PSMA expressing LNCaP cells were harvested with enzyme-free Cell Dissociation Buffer (GIBCO) and transferred to V-Bottom 96 well-plates (50,000 cells/well). Cells were incubated on ice for 45 min with serial dilutions of anti-PSMA antibodies PSGB11, PSGB12, PSGC12, PSGD4, PSGD6 and PSA11 in FACS buffer (PBS+ 2% FBS)+NaN₃. […] After 1 wash in FACS buffer, a 1:1000 dilution of Phycoerythrin conjugated anti-Human IgG (γ-chain specific) was added and incubated for 30 min Following a final wash, fluorescence intensity was measured on an Intellicyt High Throughput Flow Cytometer (HTFC).
Data were analyzed using Graphpad Prism software and non-linear regression fit. Data points are shown as the median fluorescence intensity (MFI) of positively labeled cells +/−Standard Error. EC₅₀ values are reported as the concentration of antibody to achieve 50% of maximal PSMA antibodies binding to PSMA expressing cells.
(In general: Flow cytometry measures light scatter and fluorescence of single cells or particles in a stream.)

Experiment [2] concerns the target T1, endogenous human PSMA …. Nature of the experiment: cell-based or functional assay.
The target in experiment [3] is T2, recombinant human PSMA/His (human, UniProt Q04609 44-750).
T2 construct: not shown: His tag
The experiment is described as follows: Octet biolayer interferometry, antibody amine-coupled to AR2G sensor, recombinant human PSMA/His in solution at 2.15 to 68.8 nM, global 1:1 fit (same value in all 6 rows). As to the method: (§1) Specifically, an amine Reactive Second-Generation (AR2G) sensor was coated with antibody (15 ug/ml in acetic buffer, pH5.0) using Sulfo-N-hydroxysuccinimide/N-Ethyl-N′-(3-dimethylaminopropyl)carbodiimide hydrochloride (Sulfo-NHS/EDC) coupling methodology. The sensors were quenched with 1M pH 8.5 ethanolamine Data was collected by moving sensors to serially diluted recombinant human PSMA/His (in PBS buffer) wells, then the data was dissociated by transferring the sensors to PBS wells. A 1:1 binding model was used to fit the data.

In experiment [4] the target is T2, recombinant human PSMA/His. Nature of the experiment: BLI (Octet), antibody amine-coupled to AR2G sensor, PSMA/His in solution, 1:1 model; FIG. 4, second antibody (PSGB11; printed as PSA11). As to the method: as §1
Experiment [5] addresses T2, recombinant human PSMA/His. The experiment is described as follows: Octet biolayer interferometry, antibody amine-coupled to AR2G sensor, recombinant human PSMA/His in solution at 2.15 to 68.8 nM, global 1:1 fit; column headed kdis(1/s) (same value in all 6 rows). The method, then: as §1
(In BLI a coated tip is dipped into the sample, and binding shifts an interference pattern.)

Experiment [6] concerns the target T2, recombinant human PSMA/His. The experiment is described as follows: Octet biolayer interferometry, antibody amine-coupled to AR2G sensor, recombinant human PSMA/His in solution at 0.75 to 48.1 nM, global 1:1 fit; column headed kdis(1/s) (same value in all 7 rows). As to the method:
as §1

Experiment [7] deals with T2, recombinant human PSMA/His. Nature of the experiment: BLI (Octet), antibody amine-coupled to AR2G sensor, PSMA/His in solution, 1:1 model; FIG. 3, antibody PSA11. The method, then: as §1
Experiment [8] deals with T2, recombinant human PSMA/His. Nature of the experiment: Octet biolayer interferometry, antibody amine-coupled to AR2G sensor, recombinant human PSMA/His in solution at 0.75 to 48.1 nM, global 1:1 fit (same value in all 7 rows). The method, then: as §1

A word on the EC50: it is the midpoint of the concentration-response curve. A lower EC50 goes with a more potent agent. One may read the Kd as a measure of binding affinity in units of concentration. Broadly, the kon is a measure of how fast the partners come together. What is called koff is a measure of how fast the partners let go of each other.

Substitutions are numbered along the chain they refer to. Several values for one entry are separate records, joined by “and”; a condition that tells them apart may be missing. Equal entries are not always repeated.

T1 sequence (Q04609 whole entry): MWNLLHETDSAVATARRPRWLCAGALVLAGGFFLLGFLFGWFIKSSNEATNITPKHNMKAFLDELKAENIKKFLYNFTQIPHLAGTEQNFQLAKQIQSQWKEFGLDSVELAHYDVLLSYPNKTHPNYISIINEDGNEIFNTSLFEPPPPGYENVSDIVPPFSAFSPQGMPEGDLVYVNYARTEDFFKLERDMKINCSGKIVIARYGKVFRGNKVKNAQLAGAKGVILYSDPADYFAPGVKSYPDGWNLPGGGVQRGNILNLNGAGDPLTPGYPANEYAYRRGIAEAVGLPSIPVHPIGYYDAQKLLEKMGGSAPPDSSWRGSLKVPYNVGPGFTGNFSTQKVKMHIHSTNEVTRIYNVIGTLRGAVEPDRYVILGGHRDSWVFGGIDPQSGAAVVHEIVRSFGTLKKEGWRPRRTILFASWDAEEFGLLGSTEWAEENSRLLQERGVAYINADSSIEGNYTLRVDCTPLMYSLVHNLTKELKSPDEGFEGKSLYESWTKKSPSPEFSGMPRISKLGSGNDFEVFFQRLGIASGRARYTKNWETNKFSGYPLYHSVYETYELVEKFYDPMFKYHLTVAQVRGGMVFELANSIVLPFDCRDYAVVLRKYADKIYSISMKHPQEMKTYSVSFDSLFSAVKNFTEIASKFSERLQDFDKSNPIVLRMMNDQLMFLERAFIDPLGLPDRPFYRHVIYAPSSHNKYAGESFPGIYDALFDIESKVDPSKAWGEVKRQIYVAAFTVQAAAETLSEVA
T2 sequence (Q04609 44-750 limits assumed): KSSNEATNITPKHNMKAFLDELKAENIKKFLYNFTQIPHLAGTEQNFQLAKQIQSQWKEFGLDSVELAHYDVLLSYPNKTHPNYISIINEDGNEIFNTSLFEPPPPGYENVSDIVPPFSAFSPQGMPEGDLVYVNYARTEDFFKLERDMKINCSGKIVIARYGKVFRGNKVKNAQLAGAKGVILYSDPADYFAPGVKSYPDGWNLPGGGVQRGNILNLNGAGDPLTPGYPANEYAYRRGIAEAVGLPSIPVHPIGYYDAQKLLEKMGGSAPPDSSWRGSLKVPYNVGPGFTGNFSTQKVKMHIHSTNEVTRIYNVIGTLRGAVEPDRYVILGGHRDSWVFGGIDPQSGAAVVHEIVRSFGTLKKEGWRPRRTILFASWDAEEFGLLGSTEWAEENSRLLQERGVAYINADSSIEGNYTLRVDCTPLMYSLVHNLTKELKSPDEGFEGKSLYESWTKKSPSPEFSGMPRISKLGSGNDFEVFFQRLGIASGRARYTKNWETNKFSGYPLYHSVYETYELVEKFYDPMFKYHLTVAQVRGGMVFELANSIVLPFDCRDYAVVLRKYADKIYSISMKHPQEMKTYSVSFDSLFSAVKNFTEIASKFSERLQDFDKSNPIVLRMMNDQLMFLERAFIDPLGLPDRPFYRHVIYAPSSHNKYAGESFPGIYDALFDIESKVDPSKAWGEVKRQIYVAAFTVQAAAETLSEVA

B1: anti-PSMA antibody PSGD6 (antibody, V domains shown)
VH: QVQLVQSGGGLVQPGGSLRLSCAASGFTFSSYWMSWVRQAPGKGLEWVANIKQDGSEKYYVDSVKGRFTISRDNAKNSLYLQMNSLRAEDTAVYYCARVWDYYYDSSGDAFDIWGQGTMVTVSS
VL: DIVMTQSPSSVSASVGDRVTITCRASQAISSWLAWYQQKPGKAPKLLIYAASSLQSGVPSRFSGSGSGTDFTLTISSLQPEDFATYYCQQAYSFPVTFGPGTKVDIK
notes: Fully human IgG
In the case of B1, in experiment [1], a half-maximal response (EC50) required 1.92 nM. Further, in experiment [2], the “Cell killing, 2-hours-wash method (IC50, nM); antibody pre-complexed with Protein G-MMAF, LNCaP cells, Cell Titer Glo” value (from here on “Cell killing, 2-hours-wash method”) stood at 1.13 nM and the “Cell killing, No wash method (IC50, nM); antibody pre-complexed with Protein G-MMAF, LNCaP cells, Cell Titer Glo” value (shortened to “Cell killing, No wash method (IC50, nM)”) was 0.04 nM.

B2: anti-PSMA antibody PSGC12 (antibody, V domains shown)
VH: B1 VH
VL: DIVMTQSPSSVSASVGDRVTITCRASQDVGTWLAWYQQKPGRAPKLLIYVASSLQSGVPSRFSGSGSGTDFTLTISSLQPEDSATYYCQQAKGIPYTFGQGTKLEIK
notes: Fully human IgG
On to B2, for which, in experiment [1], the midpoint of the response, the EC50, lay at 2.84 nM.

B3: anti-PSMA antibody PSGC8 (antibody, V domains shown)
VH: B1 VH
VL: AIRMTQSPSSVSASVGDRVTITCRASQGISSWLAWYQQKPGKAPKLLIYAASSLQSGVPSRFSGSGSGTDFTLTISSLKPEDFATYYCQQANSFPRALTFGGGTKVEIK
notes: Fully human IgG
B3: the EC50 in experiment [1] came out at 3.84 nM.

B4: anti-PSMA antibody PSGC9 (antibody, V domains shown)
VH: B1 VH
VL: AIRMTQSPSTLSASVGDRVTITCRASQNIYGWLAWYQQKPGKAPELLIYAASSLQSGVPSRFSGSGSGTDFTLTINSLQPEDFATYYCQQSYTIPFTFGPGTKVDIK
notes: Fully human IgG
Regarding B4, the EC50 in experiment [1] came to 2.05 nM. Besides, in experiment [2], the “Cell killing, 2-hours-wash method” value turned out to be 1.22 nM and the “Cell killing, No wash method (IC50, nM)” value was 0.06 nM.

B5: anti-PSMA antibody PSGB11 (antibody, V domains shown)
VH: B1 VH
VL: EIVLTQSPSTLSASVGDRVTITCRASQSISSWLAWYQQKPGKAPRLLIYAASILQRGVPSRFSGSGSETDFTLTISSLQPEDLATYYCQETYSNLFTFGPGTKVDIK
notes: Fully human IgG
As to B5, the EC50 in experiment [1] is 1.98 nM and 1.83 nM. For the same molecule, in experiment [3], the Kd is 0.677 nM and the kon amounted to 97000 M⁻¹ s⁻¹. Also, in experiment [2], the “Cell killing, 2-hours-wash method” value came out at 1.6 nM and the “Cell killing, No wash method (IC50, nM)” value is 0.04 nM. In experiment [4], the Kd is about 0.68 nM. For the same molecule, the koff in experiment [5] worked out at 6.57e-05 s⁻¹.

B6: anti-PSMA antibody PSGD3 (antibody, V domains shown)
VH: B1 VH
VL: DIVMTQSPSSVSASVGDRVTITCRASQDINNWLAWYQQKAGKAPKLLIYVATKLQNGVPSRFSGSGSGTDFTLSISNLQPEDFATYYCQQAKSFPYTFGQGTKLEIK
notes: Fully human IgG
Molecule B6 yielded an EC50 in experiment [1] of 3.15 nM. In experiment [2], the “Cell killing, 2-hours-wash method” value is 2.24 nM and the “Cell killing, No wash method (IC50, nM)” value stood at 0.12 nM.

B7: anti-PSMA antibody PSGG6 (antibody, V domains shown)
VH: B1 VH
VL: EIVLTQSPSSLSASVGDRVTITCRASQGISSYLAWYQQKPGKAPKLLIYAASTLQSGVPSRFSGSGSGTDFTLTISSLQPEDFATYYCQQLNSYPRGITFGQGTKLEIK
notes: Fully human IgG
On to B7, for which, in experiment [1], the response was half-maximal at 1.3 nM (EC50).

B8: anti-PSMA antibody PSA11 (antibody, V domains shown)
VH: B1 VH
VL: B1 VL with D1V, V3W, A28G, S53N, Y92N, V96L, P100G
notes: Fully human IgG (detected with anti-human IgG, gamma-chain specific)
In experiment [1], B8 registered an EC50 of 2.4 nM. Also, the koff in experiment [6] amounted to 6e-05 s⁻¹. Also, in experiment [2], the “Cell killing, 2-hours-wash method” value came to 1.55 nM and the “Cell killing, No wash method (IC50, nM)” value was found to be 0.08 nM. The dissociation constant (Kd) in experiment [7] was about 0.67 nM. Moreover, in experiment [8], the Kd amounted to 0.681 nM and the kon worked out at 88100 M⁻¹ s⁻¹.

B9: anti-PSMA antibody PSGF9 (antibody, V domains shown)
VH: B1 VH
VL: B1 VL with D1A, V3Q, A28G, F83I, Q90E, A91S, F94T, V96F
notes: Fully human IgG
In experiment [1], B9 yielded a concentration for a half-maximal effect (EC50) of 2.08 nM. In experiment [2], the “Cell killing, 2-hours-wash method” value stood at 1.33 nM and the “Cell killing, No wash method (IC50, nM)” value came to 0.13 nM.

B10: anti-PSMA antibody PSGB12 (antibody, V domains shown)
VH: B1 VH
VL: DVVMTQSPSTLSASVGDRVTITCRASQSISSWLAWYQQKPGKAPKLLIFAASSLQSGVPSRFSGSGSGTDFALTISSLQPEDFATYYCQESYSIPWTFGQGTKVEIK
notes: Fully human IgG
In turn, B10 showed an EC50 in experiment [1] of 3.46 nM. Also, in experiment [2], the “Cell killing, 2-hours-wash method” value is 1.66 nM and the “Cell killing, No wash method (IC50, nM)” value was determined as 0.05 nM.

B11: anti-PSMA antibody PSGD4 (antibody, V domains shown)
VH: B1 VH
VL: B1 VL with V11L, T20S, A28G, S31T, K45D, S53N, Y92N, V96L, P100G, D105E
notes: Fully human IgG
Consider B11, for which, in experiment [1], a half-maximal response (EC50) required 1.59 nM. In addition, in experiment [2], the “Cell killing, 2-hours-wash method” value came to 2.09 nM and the “Cell killing, No wash method (IC50, nM)” value is 0.06 nM.

B12: anti-PSMA antibody PSGH8 (antibody, V domains shown)
VH: B1 VH
VL: B1 VL with V11L, A28G, S76N, Y92S, S93G, V96F
notes: Fully human IgG
In the case of B12, in experiment [1], the concentration giving a half-maximal response (EC50) was 2.13 nM.

B13: anti-PSMA antibody PSGE10 (antibody, V domains shown)
VH: B1 VH
VL: DVVMTQSPSSVSASVGDRVTITCRASQGISSWLAWYQQKPGKAPKLLIYAASTLQSGVPSRFSGSGSGTDFTLTINNLQPEDFATYYCQQTASFPINFGGGTKVEIK
notes: Fully human IgG
On to B13, for which a half-maximal effect in experiment [1] (EC50) was put at 1.92 nM. Besides, in experiment [2], the “Cell killing, 2-hours-wash method” value came to 1.58 nM and the “Cell killing, No wash method (IC50, nM)” value was determined as 0.08 nM.

B14: anti-PSMA antibody PSGH3 (antibody, V domains shown)
VH: B1 VH
VL: B1 VL with A28G, S31N, A50V, Y92N, V96I, P100Q, K103R, V104L, D105E
notes: Fully human IgG
In experiment [1], B14 registered an EC50 of 3.72 nM. In experiment [2], the “Cell killing, 2-hours-wash method” value was 1.51 nM and the “Cell killing, No wash method (IC50, nM)” value came out at 0.06 nM.
